Where no end group is shown, it is not given here. [ ]: non-standard residue; d: D form. 2Abz = Nc1ccccc1C(=O)O
Target: tcFGE_(W228F), inactive variant of formylglycine generating enzyme from Thermomonospora curvata (Thermomonospora curvata) (UniProt D1A7C3)
Assay: ITC

UniProt D1A7C3, sequence (D1A7C3 20-303 W228F): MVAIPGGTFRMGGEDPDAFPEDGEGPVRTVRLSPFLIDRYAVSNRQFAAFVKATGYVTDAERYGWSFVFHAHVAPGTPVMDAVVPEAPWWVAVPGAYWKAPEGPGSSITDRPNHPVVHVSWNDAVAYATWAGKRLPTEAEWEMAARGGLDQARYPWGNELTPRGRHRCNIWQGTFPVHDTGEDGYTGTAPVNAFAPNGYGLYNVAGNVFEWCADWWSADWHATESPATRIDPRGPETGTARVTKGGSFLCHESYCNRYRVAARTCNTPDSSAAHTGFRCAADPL

Kd: 40 nM
Binder: [2Abz]ATTPLCGPSRASILSGR [FGE-27: Abz-…]

Source: article PMC6676471
